Reference: PMC4596688, “Structural determinants of nuclear export signal orientation in binding to exportin CRM1” (eLife, 2015)
Ends that are not written are not given here. * marks the point of attachment. FITC = O=C1OC2(c3ccc(O)cc3Oc3cc(O)ccc32)c2ccc(NC(=S)*)cc21

B1: CPEB4^NES-R peptide used for crystallization (peptide)
peptide: GGSYRMIDILSSELSHMDFTR
notes: also called CPEB4-R; source: E. coli BL-21(DE3), MBP fusion purified (amylose, ion exchange), cleaved with TEV, peptide isolated by gel filtration; not shown: MBP, N-terminal, cleaved
B2: hRio2^NES peptide used for crystallization (GGSY-389RSFEMTEFNQALEEI403) (peptide)
peptide: GGSYRSFEMTEFNQALEEI
modifications: not fully specified (residue 9); printed as GGSY^389^RSFEMTEFNQALEEI^403^
notes: residues before the NES that are left after TEV cleavage; NES of human Rio2 (hRio2), residues 389-403; The text speaks of a native and of a selenomethionine peptide; Residues 391-403 modelled; also called Selenomethione-hRio2; source: E. coli BL-21(DE3), MBP fusion purified (amylose, ion exchange), cleaved with TEV, peptide isolated by gel filtration; not shown: MBP, N-terminal, cleaved
B3: CPEB4^NES peptide used for crystallization (GGSY-379RTFDMHSLESSLIDI393) (peptide)
peptide: GGSYRTFDMHSLESSLIDI
notes: residues before the NES that are left after TEV cleavage; NES of CPEB4, residues 379-393; source: E. coli BL-21(DE3), MBP fusion purified (amylose, ion exchange), cleaved with TEV, peptide isolated by gel filtration; not shown: MBP, N-terminal, cleaved
B4: hRio2^NES-R peptide used for crystallization (peptide)
peptide: GGSYGKIEELAQNFETMEFSR
modifications: not fully specified (residue 17)
notes: also called Selenomethione-hRio2-R; source: E. coli BL-21(DE3), MBP fusion purified (amylose, ion exchange), cleaved with TEV, peptide isolated by gel filtration; not shown: MBP, N-terminal, cleaved
B5: FITC-PKI^NES peptide (FITC-SGNSNELALKLAGLDINKT) (peptide)
peptide: {FITC}-SGNSNELALKLAGLDINKT
notes: also called fluorescent-labeled PKI^NES peptide; source: synthetic peptide (GenScript)
B6: PKI^NES-Flip3 peptide used for crystallization (peptide)
peptide: GGSYRSFDMNELALKLAGLD
notes: PKI NES helix with the ΦXΦ motif moved to the N-terminus and made larger (FDM), after GGSY left from TEV cleavage; also called PKI-Flip3; source: E. coli BL-21(DE3), MBP fusion purified (amylose, ion exchange), cleaved with TEV, peptide isolated by gel filtration; not shown: MBP, N-terminal, cleaved

Legend:
[1] = biological target: CRM1* (ScCRM1 residues 1-1058, Δ377-413, V441D, 537DLTVK541 to GLCEQ) (Saccharomyces cerevisiae, UniProt P30822 1-1058, Δ377–413 | V441D | 537DLTVK541 to GLCEQ); test: crystal structure; quaternary CRM1*-RanGppNHp-RanBP1 (Yrb1p)-NES peptide complexes, assembled 1:3:10 and purified by gel filtration in GF buffer; crystals in 17% PEG3350, 100 mM Bis-Tris pH 6.4, 200 mM ammonium nitrate, 10 mM spermine HCl; details: both partners purified
[2] = biological target: Full-length human CRM1 (HsCRM1) (human, UniProt O14980 1-1071); test: differential bleaching monitored with a microscale thermophoresis instrument (direct titration); HsCRM1 serially diluted from 40 μM to 1.2 nM, mixed 1:1 with 120 μM ScRan-GTP and 40 nM FITC-PKI^NES; TB buffer with 15% glycerol, 0.05% Tween-20; 1 hr, room temperature; details: both partners purified
Chain of Full-length human CRM1 (HsCRM1) (O14980 whole entry): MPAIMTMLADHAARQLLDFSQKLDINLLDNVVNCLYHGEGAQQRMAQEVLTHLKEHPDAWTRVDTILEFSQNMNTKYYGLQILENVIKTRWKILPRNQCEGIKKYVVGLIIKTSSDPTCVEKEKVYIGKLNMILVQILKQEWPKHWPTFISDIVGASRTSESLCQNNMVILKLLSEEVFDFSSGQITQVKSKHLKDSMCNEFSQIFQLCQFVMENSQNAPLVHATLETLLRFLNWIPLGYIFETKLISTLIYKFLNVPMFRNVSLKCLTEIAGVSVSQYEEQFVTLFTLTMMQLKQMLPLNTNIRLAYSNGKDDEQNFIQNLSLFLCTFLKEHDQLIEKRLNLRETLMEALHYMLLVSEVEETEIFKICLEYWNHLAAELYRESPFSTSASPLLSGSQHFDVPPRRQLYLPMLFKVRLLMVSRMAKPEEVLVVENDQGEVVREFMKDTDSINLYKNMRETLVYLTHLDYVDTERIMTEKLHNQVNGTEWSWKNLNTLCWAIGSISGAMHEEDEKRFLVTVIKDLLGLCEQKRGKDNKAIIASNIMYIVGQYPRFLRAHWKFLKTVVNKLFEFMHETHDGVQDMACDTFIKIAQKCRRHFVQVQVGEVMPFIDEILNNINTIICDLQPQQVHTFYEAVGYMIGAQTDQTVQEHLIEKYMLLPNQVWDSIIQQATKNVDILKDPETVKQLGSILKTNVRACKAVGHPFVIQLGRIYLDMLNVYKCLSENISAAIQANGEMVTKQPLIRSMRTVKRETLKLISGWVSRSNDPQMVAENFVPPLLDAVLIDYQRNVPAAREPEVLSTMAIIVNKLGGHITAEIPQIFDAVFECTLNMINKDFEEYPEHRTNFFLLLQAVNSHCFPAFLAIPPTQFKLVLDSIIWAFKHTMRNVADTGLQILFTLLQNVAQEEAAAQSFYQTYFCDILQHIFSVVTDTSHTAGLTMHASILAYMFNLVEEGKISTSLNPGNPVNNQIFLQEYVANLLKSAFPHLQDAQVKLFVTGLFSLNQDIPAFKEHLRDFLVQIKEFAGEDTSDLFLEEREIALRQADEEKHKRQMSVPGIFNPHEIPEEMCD

Binder	binding result [1]	binding result [2]
B1	binds	
B2	binds	
B3	binds	
B4	binds	
B5		binds
B6	binds	
